Substrate: O=C(O)/C=C/c1ccc(O)c(O)c1
Experiment: purified protein
Settings: co-substrate SAM
[1] = optimal conditions (30°C, pH 8.0)
[2] = optimal conditions (35°C, pH 8.0)

Protein | kcat (optimal conditions) [s⁻¹] | kcat/Km (optimal conditions) [M⁻¹ s⁻¹] | other results
AtCOMT (Arabidopsis thaliana) (protein) MGSTAETQLTPVQVTDDEAALFAMQLASASVLPMALKSALELDLLEIMAKNGSPMSPTEIASKLPTKNPEAPVMLDRILRLLTSYSVLTCSNRKLSGDGVERIYGLGPVCKYLTKNEDGVSIAALCLMNQDKVLMESWYHLKDAILDGGIPFNKAYGMSAFEYHGTDPRFNKVFNNGMSNHSTITMKKILETYKGFEGLTSLVDVGGGIGATLKMIVSKYPNLKGINFDLPHVIEDAPSHPGIEHVGGDMFVSVPKGDAIFMKWICHDWSDEHCVKFLKNCYESLPEDGKVILAECILPETPDSSLSTKQVVHVDCIMLAHNPGGKERTEKEFEALAKASGFKGIKVVCDAFGVNLIELLKKL |  |  | kcat [1]: 0.327 s⁻¹; kcat/Km [1]: 482 M⁻¹ s⁻¹
AtCOMT (Arabidopsis thaliana; N129V) (protein) MGSTAETQLTPVQVTDDEAALFAMQLASASVLPMALKSALELDLLEIMAKNGSPMSPTEIASKLPTKNPEAPVMLDRILRLLTSYSVLTCSNRKLSGDGVERIYGLGPVCKYLTKNEDGVSIAALCLMVQDKVLMESWYHLKDAILDGGIPFNKAYGMSAFEYHGTDPRFNKVFNNGMSNHSTITMKKILETYKGFEGLTSLVDVGGGIGATLKMIVSKYPNLKGINFDLPHVIEDAPSHPGIEHVGGDMFVSVPKGDAIFMKWICHDWSDEHCVKFLKNCYESLPEDGKVILAECILPETPDSSLSTKQVVHVDCIMLAHNPGGKERTEKEFEALAKASGFKGIKVVCDAFGVNLIELLKKL | 0.458 | 828 | 
AtCOMT (Arabidopsis thaliana; H313A) (protein) MGSTAETQLTPVQVTDDEAALFAMQLASASVLPMALKSALELDLLEIMAKNGSPMSPTEIASKLPTKNPEAPVMLDRILRLLTSYSVLTCSNRKLSGDGVERIYGLGPVCKYLTKNEDGVSIAALCLMNQDKVLMESWYHLKDAILDGGIPFNKAYGMSAFEYHGTDPRFNKVFNNGMSNHSTITMKKILETYKGFEGLTSLVDVGGGIGATLKMIVSKYPNLKGINFDLPHVIEDAPSHPGIEHVGGDMFVSVPKGDAIFMKWICHDWSDEHCVKFLKNCYESLPEDGKVILAECILPETPDSSLSTKQVVAVDCIMLAHNPGGKERTEKEFEALAKASGFKGIKVVCDAFGVNLIELLKKL | 0.4 | 606 | 
AtCOMT (Arabidopsis thaliana; H313A/N129V) (protein) MGSTAETQLTPVQVTDDEAALFAMQLASASVLPMALKSALELDLLEIMAKNGSPMSPTEIASKLPTKNPEAPVMLDRILRLLTSYSVLTCSNRKLSGDGVERIYGLGPVCKYLTKNEDGVSIAALCLMVQDKVLMESWYHLKDAILDGGIPFNKAYGMSAFEYHGTDPRFNKVFNNGMSNHSTITMKKILETYKGFEGLTSLVDVGGGIGATLKMIVSKYPNLKGINFDLPHVIEDAPSHPGIEHVGGDMFVSVPKGDAIFMKWICHDWSDEHCVKFLKNCYESLPEDGKVILAECILPETPDSSLSTKQVVAVDCIMLAHNPGGKERTEKEFEALAKASGFKGIKVVCDAFGVNLIELLKKL | 0.498 | 1390 | 
AtCOMT (Arabidopsis thaliana; F174L/H313A/N129V) (protein) MGSTAETQLTPVQVTDDEAALFAMQLASASVLPMALKSALELDLLEIMAKNGSPMSPTEIASKLPTKNPEAPVMLDRILRLLTSYSVLTCSNRKLSGDGVERIYGLGPVCKYLTKNEDGVSIAALCLMVQDKVLMESWYHLKDAILDGGIPFNKAYGMSAFEYHGTDPRFNKVLNNGMSNHSTITMKKILETYKGFEGLTSLVDVGGGIGATLKMIVSKYPNLKGINFDLPHVIEDAPSHPGIEHVGGDMFVSVPKGDAIFMKWICHDWSDEHCVKFLKNCYESLPEDGKVILAECILPETPDSSLSTKQVVAVDCIMLAHNPGGKERTEKEFEALAKASGFKGIKVVCDAFGVNLIELLKKL |  |  | kcat [2]: 0.475 s⁻¹; kcat/Km [2]: 2020 M⁻¹ s⁻¹
AtCOMT (Arabidopsis thaliana; F174L) (protein) MGSTAETQLTPVQVTDDEAALFAMQLASASVLPMALKSALELDLLEIMAKNGSPMSPTEIASKLPTKNPEAPVMLDRILRLLTSYSVLTCSNRKLSGDGVERIYGLGPVCKYLTKNEDGVSIAALCLMNQDKVLMESWYHLKDAILDGGIPFNKAYGMSAFEYHGTDPRFNKVLNNGMSNHSTITMKKILETYKGFEGLTSLVDVGGGIGATLKMIVSKYPNLKGINFDLPHVIEDAPSHPGIEHVGGDMFVSVPKGDAIFMKWICHDWSDEHCVKFLKNCYESLPEDGKVILAECILPETPDSSLSTKQVVHVDCIMLAHNPGGKERTEKEFEALAKASGFKGIKVVCDAFGVNLIELLKKL | 0.369 | 1120 | 
